In patent US20050287527A1, “Quantitative ranking of transient ligand binding to target biomolecules” (National Research Council of Canada, priority 2002, published 2005):

How the values were obtained:
human α-thrombin = molecular target: T1, human α-thrombin (Homo sapiens, UniProt P00734); test: 15N CPMG NMR relaxation dispersion of peptide ligand with human thrombin, fitting of koff; type: binding; conditions: 288 K, two-site exchange
T1 construct: in complex with human α-thrombin

thrombin [1] = molecular target: T2, thrombin (Homo sapiens, UniProt P00734); test: Inhibition of human thrombin; type: biochemical; conditions: bivalent inhibitor of human thrombin
thrombin [2] = molecular target: T2, thrombin; test: Proteolytic cleavage of FD22 by active thrombin; type: biochemical; set-up: in complex with human α-thrombin; conditions: peptide ~0.9 mM, 50 mM sodium phosphate, 0.2 mM EDTA, pH 5.5, active thrombin added
Description: Titration of the thrombin-cleaved FD22 peptide was carried out as follows. The sample of FD22 was concentrated by Speed-Vac to 40 μl and 180 μl of a concentrated thrombin solution were added to give a final thrombin:peptide ratio of approximately 1:20 in 60 mM sodium phosphate buffer, 0.2 mM EDTA, 10% D2O, at pH 5.5. Additional steps of thrombin titrations were carried out by the addition of the human […]-thrombin concentrated to ˜8 mg/ml.
FD22 has the sequence of Phe-Asp45-Pro-Arg-Pro-Gln-Ser50-His-Asn-Asp-Gly-Asp55-Phe-Glu-Glu-Ile-Pro60-Glu-Glu-Tyr-Leu-Gln65 (SEQ ID NO:20) and binds to thrombin via both the anion-binding exosite-I and the catalytic active site. The addition of active thrombin to the peptide FD22 (dissolved at a concentration of ˜0.9 mM in 50 mM sodium phosphate buffer, 10% D2O, 0.2 mM EDTA, at pH 5.5), caused slow and specific proteolytic cleavage at the Arg47-Pro48 peptide bond (taking >60 hours for the cleavage to complete). Upon completion of the cleavage, the sample contains a mixture of two peptides, Phe-Asp45-Pro-Arg (FD22-N) (SEQ ID NO:17) and Pro-Gln-Ser50-His-Asn-Asp-Gly-Asp55-Phe-Glu-Glu-Ile-Pro60-Glu-Glu-Tyr-Leu-Gln65 (FD22-C) (SEQ ID NO:18) that should bind separately to the active site and the anion-binding exosite I of thrombin.

human prothrombin [3] = molecular target: T3, human prothrombin (Homo sapiens, UniProt P00734); test: 15N CPMG NMR relaxation dispersion of peptide ligand with human prothrombin, fitting of koff; type: binding
Description: Dried powder of the purified peptide was weighed using a Sartorius Supermicro S4™ balance and dissolved at ˜1.5 mM in an aqueous solution (10% D2O) that was 50 mM in NaCl and 50 mM in sodium phosphate at pH 5.5. Carefully measured volume aliquots of human prothrombin at a stock concentration of 0.3 mM were added to the peptide solution to produce molar ratios of ˜1:45, ˜1:35, and ˜1:30 for the prothrombin and peptide concentrations, respectively.
The core of the NMR relaxation dispersion measurements is the relaxation-compensated CPMG pulse scheme (FIG. 1) (Millet, O., Loria, J. P., Kroenke, C. D., Pons, M., and Palmer, A. G. (2000) J.Am.Chem.Soc. 122, 2867-2877; and Loria, J. P., Rance, M., and Palmer, A. G. (1999) J.Am.Chem.Soc. 121, 2331-2332). A train of ^15N 180° pulses with a separation of 1 ms is applied at 100 ppm off the center of the HSQC spectrum at the beginning of the recycle delay d1 such that the total number of ^15N 180° pulses, 4N, is kept the same for all experiments with different CPMG pulse repetition rates. An XY-16 180° pulse train (Gullion, T., Baker, D. B., and Conradi, M. S. (1990) J.Magn.Reson. 89, 479-484) is also applied to both the ^1H and ^15N nuclei during the two INEPT periods, which limits the decay of exchange-broadened ligand resonances. Further enhancement in sensitivity was achieved by using the 3919 WATERGATE sequence for water suppression (Piotto, M., Saudek, V., and Sklenar, V. (1992) J.Biomol.NMR 2, 661-665). The 90° and 180° RF pulses are represented by narrow and wide bars, respectively, applied along the +X axis unless specified otherwise. The open rectangles are water-selective soft pulses with duration of 2 ms. During data acquisition, ^15N decoupling is achieved using a GARP sequence (Shaka, A. J., Barker, P. B., and Freeman, R. (1985) J.Magn.Reson. 64, 547-552) with an RF field of 1.0 kHz (at 500 MHz) or 1.2 kHz (at 800 MHz). The delays are: Δ=2.7 ms, τ=1 ms, d2=d1-4(N-n)τ and τCPMG=(T/4n−pw180N), where T is the total duration of the ^15N CPMG pulse train and pw^180N is the width of the ^15N 180° pulse. Sinebell-shaped gradient pulses with a duration of 1 ms are used with gradient strengths of g1=5 G/cm, g2=6 G/cm, g3=1.2 G/cm, g4=6 G/cm, and g5=10 G/cm. The phases of some RF pulses are the same as those reported previously with φ1=+X−X, φ2=4(+X) 4(−X) and φ3=2(+X) 2(+Y) 2(−X) 2(−Y) (Millet, O., Loria, J. P., Kroenke, C. D., Pons, M., and Palmer, A. G. (2000) J.Am. Chem. Soc. 122, 2867-2877), except that the phases for the last ^15N 90° pulse, the WATERGATE sequence and the RF receiver are cycled as φ4=4(+X) 4(−X), φ5=8(+X) 8(+Y), φ6=8(−X) 8(−Y) and receiver=(+X−X−X+X) 2(−X+X+X−X) (+X−X−X+X). Phase-sensitive ^1H—^15N HSQC spectra were obtained by incrementing φ4, according to the States-TPPI scheme (Marion, D., Ikura, M., Tschudin, R., and Bax, A. (1989) J.Magn.Reson. 85, 393-). […] NMR data were collected at ^15N frequencies of 50.684 and 81.076 MHz using Bruker Avance/DRX 500 and 800 MHz NMR spectrometers. The total length of the ^15N CPMG pulse train, T (FIG. 1), is kept at a constant value of 40 ms and the total number (4N) of the ^15N CPMG 1800 pulses was set to 100.
For the specific application herein, values for koff, kon′, koff^1, koff^2, kon^−1, k1, k2, R2b(500 MHz), R2b(800 MHz), δωb, δωb1 and δωb2 (FIG. 2) were fitted as independent variables. Values kon^−2, pb, pb1, pb2, and pf=(1−pb1−pb2), with p standing for the population of the corresponding species, were derived using the condition of microscopic reversibility kijpi=kjipj, where kij denotes the exchange rate constant for the transformation of species i into species j.

human prothrombin [4] = molecular target: T3, human prothrombin; conditions: binding with human prothrombin; previous reports; cited from earlier work
thrombin [5] = molecular target: T2, thrombin; conditions: cited from earlier work
[6] = "linear" three-site exchange model, Phe56, Glu57, Ile59 simultaneously
[7] = general ("full") three-site exchange, Phe56, Glu57, Ile59 simultaneously
[8] = residue Glu57, "linear" three-site exchange model, exchange between bound states

Substance: Pro-Gln-Ser50-His-Asn-Asp-Gly-Asp55-Phe-Glu-Glu-Ile-Pro60-Glu-Glu-Tyr-Leu-Gln65 (PQSHNDGDFEEIPEEYLQ; Anti-thrombin peptide) [FD22-C]
- koff (human α-thrombin; residue Leu64 (FD22-C fragment), simultaneous fit at three α-thrombin concentrations): ~400 s⁻¹
- koff (human α-thrombin; residue Phe56 (FD22-C fragment), highest α-thrombin concentration only): ~400 s⁻¹
- koff (human α-thrombin; residue Tyr63 (FD22-C fragment), simultaneous fit at three α-thrombin concentrations): ~100 s⁻¹

Substance: Phe-Asp45-Pro-Arg-Pro-Gln-Ser50-His-Asn-Asp-Gly-Asp55-Phe-Glu-Glu-Ile-Pro60-Glu-Glu-Tyr-Leu-Gln65 (FDPRPQSHNDGDFEEIPEEYLQ; Anti-thrombin peptide) [FD22]
- IC50 (thrombin [1]): ~0.02 µM
- time for the cleavage at the Arg47-Pro48 peptide bond to complete (thrombin [2]): > 60 h

Substance: N-acetyl-*Asp-*Phe-*Glu-*Glu-*Ile-Pro-Glu-Glu-Tyr-Leu-Gln [N-acetyl-Hir(55-65), anti-thrombin peptide]
- k1 (human prothrombin [3]; [6]): 560 ± 510 s⁻¹
- kex=k1+k2 (human prothrombin [3]; [6]): 700±500 s^1
- k1 (human prothrombin [3]; [7]): 66 ± 57 s⁻¹
- k2 (human prothrombin [3]; [7]): 110 ± 130 s⁻¹
- kex=k1+k2 (human prothrombin [3]; [7]): 180 ± 150 s⁻¹
- k1 (human prothrombin [3]; [8]): 50 ± 30 s⁻¹
- k2 (human prothrombin [3]; [8]): 150 ± 70 s⁻¹
- Kd (human prothrombin [4]): 100 to 300 µM
- affinity for human thrombin compared with the same site on human prothrombin (thrombin [5]): higher affinity
